Assay results published in the Immune Epitope Database (IEDB).
Blank lines part the entries; values can stand above or below the sequence they belong to.

Columns and labels:
Assay in all cases: IEDB peptide-MHC binding, purified MHC/competitive/radioactivity; filed as Kd, often an IC50 or EC50 that approximates it; ≥ and ≤ were set here for values at or beyond the usual limits of such assays
HLA-A*03:01 = target: HLA-A*03:01
HLA-A*11:01 = target: HLA-A*11:01
HLA-A*31:01 = target: HLA-A*31:01
HLA-A*33:01 = target: HLA-A*33:01
HLA-A*68:01 = target: HLA-A*68:01
[1] = source organism: Lymphocytic choriomeningitis virus (strain Armstrong)
[2] = source organism: Dengue virus 1 Brazil/97-11/1997
[3] = source organism: Vaccinia virus WR
[4] = source organism: Dengue virus 4 Philippines/H241/1956
[5] = source organism: Mammarenavirus brazilense
[6] = source organism: Vaccinia virus Copenhagen
[7] = source organism: Dengue virus 2 Jamaica/1409/1983
[8] = source organism: SARS coronavirus Tor2
[9] = source organism: Dengue virus 3 Martinique/1243/1999

Sequence: GNFSWFPHK
Kd (HLA-A*03:01; [1]): 159 nM
Kd (HLA-A*11:01; [1]): 80.2 nM
Kd (HLA-A*31:01; [1]): 1350 nM
Kd (HLA-A*33:01; [1]): 6310 nM
Kd (HLA-A*68:01; [1]): 1830 nM

Sequence: DYMTSMKRFK
Kd (HLA-A*33:01; [2]): 21.2 nM

Sequence: AAIDRQVSVK
Kd (HLA-A*03:01; [3]): 257 nM
Kd (HLA-A*11:01; [3]): 10.6 nM
Kd (HLA-A*31:01; [3]): 16500 nM
Kd (HLA-A*33:01; [3]): ≥ 70000 nM
Kd (HLA-A*68:01; [3]): 693 nM

Sequence: MGYWIESSK
Kd (HLA-A*03:01; [4]): 83.9 nM

Sequence: TQIFEVYWY
Kd (HLA-A*03:01; [3]): 1850 nM
Kd (HLA-A*11:01; [3]): 353 nM
Kd (HLA-A*31:01; [3]): 3800 nM
Kd (HLA-A*33:01; [3]): 10900 nM
Kd (HLA-A*68:01; [3]): 733 nM

Sequence: ISRTRLYDY
Kd (HLA-A*03:01; [3]): 176 nM
Kd (HLA-A*11:01; [3]): 1410 nM
Kd (HLA-A*31:01; [3]): 1240 nM
Kd (HLA-A*33:01; [3]): 2190 nM
Kd (HLA-A*68:01; [3]): ≥ 42900 nM

Sequence: ILMKTANNY
Kd (HLA-A*03:01; [3]): 325 nM
Kd (HLA-A*11:01; [3]): 287 nM
Kd (HLA-A*31:01; [3]): ≥ 77900 nM
Kd (HLA-A*33:01; [3]): ≥ 77700 nM
Kd (HLA-A*68:01; [3]): ≥ 20900 nM

Sequence: YANCSSISIK
Kd (HLA-A*03:01; [3]): 452 nM
Kd (HLA-A*11:01; [3]): 115 nM
Kd (HLA-A*31:01; [3]): 4310 nM
Kd (HLA-A*33:01; [3]): 18100 nM
Kd (HLA-A*68:01; [3]): 51.7 nM

Sequence: GLTPEQKAY
Kd (HLA-A*03:01; [3]): ≥ 78000 nM
Kd (HLA-A*11:01; [3]): ≥ 56300 nM
Kd (HLA-A*31:01; [3]): ≥ 77900 nM
Kd (HLA-A*33:01; [3]): ≥ 77700 nM
Kd (HLA-A*68:01; [3]): 15000 nM

Sequence: IVRTMPNESR
Kd (HLA-A*03:01; [3]): 241 nM
Kd (HLA-A*11:01; [3]): 16100 nM
Kd (HLA-A*31:01; [3]): 4820 nM
Kd (HLA-A*33:01; [3]): 10700 nM
Kd (HLA-A*68:01; [3]): 401 nM

Sequence: FKVAFSKHYK
Kd (HLA-A*03:01; [5]): 279 nM
Kd (HLA-A*11:01; [5]): 2140 nM
Kd (HLA-A*31:01; [5]): 48.3 nM
Kd (HLA-A*33:01; [5]): 3190 nM
Kd (HLA-A*68:01; [5]): 582 nM

Sequence: LLSGQGPMK
Kd (HLA-A*03:01; [2]): 40.2 nM

Sequence: DTIESAKTK
Kd (HLA-A*03:01; [3]): 4100 nM
Kd (HLA-A*11:01; [3]): 672 nM
Kd (HLA-A*31:01; [3]): 11300 nM
Kd (HLA-A*33:01; [3]): 3590 nM
Kd (HLA-A*68:01; [3]): 5.82 nM

Sequence: EANASAQTK
Kd (HLA-A*03:01; [3]): 1560 nM
Kd (HLA-A*11:01; [3]): 2600 nM
Kd (HLA-A*31:01; [3]): ≥ 56300 nM
Kd (HLA-A*33:01; [3]): 12500 nM
Kd (HLA-A*68:01; [3]): 27.3 nM

Sequence: LSDENYLLK
Kd (HLA-A*03:01; [3]): 591 nM
Kd (HLA-A*11:01; [3]): 1.59 nM
Kd (HLA-A*31:01; [3]): 1500 nM
Kd (HLA-A*33:01; [3]): ≥ 66100 nM
Kd (HLA-A*68:01; [3]): 13500 nM

Sequence: PVYISQFSYK
Kd (HLA-A*03:01; [6]): 1.26 nM
Kd (HLA-A*11:01; [6]): 19.2 nM
Kd (HLA-A*31:01; [6]): 13.3 nM
Kd (HLA-A*33:01; [6]): 54 nM
Kd (HLA-A*68:01; [6]): 95.2 nM

Sequence: ALINLVQYR
Kd (HLA-A*03:01; [3]): 6500 nM
Kd (HLA-A*11:01; [3]): 3920 nM
Kd (HLA-A*31:01; [3]): 137 nM
Kd (HLA-A*33:01; [3]): 17400 nM
Kd (HLA-A*68:01; [3]): 258 nM

Sequence: VSLLGSALLK
Kd (HLA-A*03:01; [4]): 24.9 nM
Kd (HLA-A*11:01; [4]): 45.3 nM

Sequence: TTLSLDYAWK
Kd (HLA-A*11:01; [2]): 79.8 nM
Kd (HLA-A*68:01; [2]): 13.9 nM

Sequence: TSSFREKSR
Kd (HLA-A*03:01; [3]): ≥ 65000 nM
Kd (HLA-A*11:01; [3]): 5750 nM
Kd (HLA-A*31:01; [3]): 132 nM
Kd (HLA-A*33:01; [3]): 844 nM
Kd (HLA-A*68:01; [3]): 132 nM

Sequence: MLNILNRRRR
Kd (HLA-A*31:01; [7]): 14.1 nM

Sequence: NQATTKTTFK
Kd (HLA-A*03:01; [8]): 378 nM
Kd (HLA-A*11:01; [8]): 440 nM
Kd (HLA-A*31:01; [8]): 4270 nM
Kd (HLA-A*33:01; [8]): ≥ 26500 nM
Kd (HLA-A*68:01; [8]): 506 nM

Sequence: SQLAKRFSR
Kd (HLA-A*31:01; source organism: Dengue virus 3 Singapore/8120/1995): 2.07 nM

Sequence: SYSMCTGKFK
Kd (HLA-A*33:01; [7]): 841 nM

Sequence: MWSLMYFHRR
Kd (HLA-A*31:01; [9]): 11.5 nM
Kd (HLA-A*33:01; [9]): 31.2 nM

Sequence: ALLALNDMGK
Kd (HLA-A*03:01; [9]): 28.4 nM
Kd (HLA-A*11:01; [9]): 196 nM

Sequence: HVQTKPGLFK
Kd (HLA-A*03:01; [4]): 8.44 nM
Kd (HLA-A*11:01; [4]): 389 nM

Sequence: YVSAIAQTEK
Kd (HLA-A*11:01; [7]): 311 nM
Kd (HLA-A*68:01; [7]): 24 nM

Sequence: CTGKFKIVK
Kd (HLA-A*11:01; [7]): 98.3 nM

Sequence: DIQQWEPSR
Kd (HLA-A*33:01; [7]): 113 nM

Sequence: MLSIINKRK
Kd (HLA-A*03:01; [9]): 121 nM

Sequence: ISSIIRSLPK
Kd (HLA-A*11:01; source organism: Mammarenavirus whitewaterense): 23 nM

Sequence: STYGWNLVR
Kd (HLA-A*03:01; [7]): 63.5 nM
Kd (HLA-A*31:01; [7]): 3.26 nM
Kd (HLA-A*33:01; [7]): 2.91 nM
Kd (HLA-A*68:01; [7]): 8.81 nM

Sequence: GVCGIRSATR
Kd (HLA-A*31:01; [2]): ≥ 70000 nM
Kd (HLA-A*68:01; [2]): 1880 nM

Kd (HLA-A*68:01; source organism: Homo sapiens): 50 nM
Sequence: EASIQPITR

Sequence: LINRFTMRHK
Kd (HLA-A*03:01; source organism: Dengue virus 2 Peru/IQT2913/1996): 14.1 nM

Sequence: MVLAFITFLR
Kd (HLA-A*11:01; [4]): 971 nM
Kd (HLA-A*31:01; [4]): 4.34 nM
Kd (HLA-A*33:01; [4]): 22.3 nM
Kd (HLA-A*68:01; [4]): 17.4 nM

Sequence: SMLNIMNRRK
Kd (HLA-A*03:01; [2]): 49.6 nM

Sequence: TSGSPIIDK
Kd (HLA-A*11:01; source organism: Dengue virus 2 16681-PDK53): 69.4 nM

Sequence: EAKQPATLR
Kd (HLA-A*33:01; [7]): 10.1 nM
Kd (HLA-A*68:01; [7]): 74.8 nM

Sequence: EMGANFKADR
Kd (HLA-A*33:01; [9]): 1540 nM

Sequence: FTTRLLSSTR
Kd (HLA-A*33:01; [4]): 85.4 nM
Kd (HLA-A*68:01; [4]): 25.5 nM

Sequence: MWSLMYFHR
Kd (HLA-A*31:01; [9]): 28.9 nM
Kd (HLA-A*33:01; [9]): 1.36 nM

Sequence: RLRMDKLQLK
Kd (HLA-A*03:01; [7]): 7.91 nM

Sequence: ASLPTYLSSR
Kd (HLA-A*31:01; [4]): 7.6 nM

Sequence: YMPSMKRFR
Kd (HLA-A*31:01; [7]): 100 nM
Kd (HLA-A*33:01; [7]): 7.57 nM

Sequence: FNMLKRARNR
Kd (HLA-A*33:01; [2]): 421 nM
